For two compounds, stoichiometry N and Ki results are on record in paper PMC3584063, “Biochemical and Functional Studies on the Burkholderia cepacia Complex bceN Gene, Encoding a GDP-D-Mannose 4,6-Dehydratase” (PLoS ONE, 2013).

The target in test [1] is 6×His-tagged BceN protein of Burkholderia cenocepacia J2315 (GDP-D-mannose 4,6-dehydratase) (Burkholderia cenocepacia J2315). The test is described as follows: native gel or EMSA; discontinuous native PAGE, 8% polyacrylamide, 200 mM Tris-Cl pH 8.8, 4°C, 100 V, 2 h; 6 µg purified 6×His-tagged BceN; aliquot with GMD activity; mass standards catalase, aldolase, BSA, ovalbumin.

Test [2] addresses T1, BceN (GDP-D-mannose 4,6-dehydratase) (Burkholderia cenocepacia, UniProt B4EFL2).
T1 construct: gene gca; full-length, C-terminally 6×His-tagged BceN, tetramer
The test is described as follows: 1H NMR enzyme kinetics with purified protein (substrate turnover and substrate inhibition), […]°C, pH […]. Type of test: biochemical.

The term stoichiometry N denotes the number of molecules, sites or subunits per partner or assembly.

For the compound “6×His-tagged BceN protein of Burkholderia cenocepacia J2315 (GDP-D-mannose 4,6-dehydratase) (enzyme)”, the stoichiometry N in test [1] stood at 4.

Turning to `Nc1nc2c(ncn2[C@@H]2O[C@H](COP(=O)(O)OP(=O)(O)O[C@H]3O[C@H](CO)[C@@H](O)[C@H](O)[C@@H]3O)[C@@H](O)[C@H]2O)c(=O)[nH]1` [A, GDP-D-mannose], in test [2], the Ki turned out to be 2910 ± 350 µM.
